Assay results published in US20050079574A1.

Target: IGF1 (Insulin-like Growth Factor 1) (UniProt P05019)
Assay: IC50 (uM) column of the drawn table; phage clone of the F(ab')2 L3/H3 library on the 4D5 template, IC50 analysed as in Sidhu et al. (P-0517); source oligo (DVK)7

B1: SEQ ID NO 69 (antibody, part only; not given: template light chain, V domains shown, part only)
VH: EVQLVESGGGLVQPGGSLRLSCAASGFNIKDTYIHWVRQAPGKGLEWVARIYPTNGYTRYADSVKGRFTISADTSKNTAYLQMNSLRAEDTAVYYCSRSRGWWTAAMDVWGQGTLVTVSS
In the case of B1, the IC50 is reported as 0.3 µM.

B2: SEQ ID NO 70 (antibody, part only; not given: template light chain, V domains shown, part only)
VH: EVQLVESGGGLVQPGGSLRLSCAASGFNIKDTYIHWVRQAPGKGLEWVARIYPTNGYTRYADSVKGRFTISADTSKNTAYLQMNSLRAEDTAVYYCSRASRDWYGAMDVWGQGTLVTVSS
B2 showed an IC50 of 15 µM.
